Reference: US20230399384A1
Read-outs that look alike come from different tables or passages of the source.

Experiments:
Settings in all cases: remark: other sources report otherwise
[1] = target: T1, sCoV2-RBD (Fc-tagged RBD of SARS-CoV-2 S protein) (SARS-CoV-2; human), P0DTC2
[2] = target: T1, sCoV2-RBD (Fc-tagged RBD of SARS-CoV-2 …); remark: listed apart in the source
[3] = target: trimeric prefusion S protein of SARS-CoV-2 (SARS-CoV-2), P0DTC2
[4] = target: T1, sCoV2-RBD (Fc-tagged RBD of SARS-CoV-2 …); assay: BLI (Octet) blocking of ACE2 binding to captured sCoV2-RBD
[5] = target: T1, sCoV2-RBD (Fc-tagged RBD of SARS-CoV-2 …); assay: ELISA titration on coated sCoV2-RBD

B1: CoV2-14 (antibody, V domains shown)
VH: EVQLQQSGPGLVKPSQTLSLTCAISGDSVSSNSAAWNWIRQSPSRGLEWLGRTYYRSKWYNDYAVSVKSRITINPDTSKNQFSLQLNSVTPEDTAVYYCAREEQQLVHDYYYYGMDVWGQGTMVTVSS
VL: QAVVTQPASVSGSPGQSITISCTGTSSDIGAYNYISWYQQHPGKAPKLIIYEVSNRPSGISYRFSGSKSGNTASLTISGLQAEDEANYYCSSYAGSISFGGGTKVTVL
EC50 (read off the curve) [1]: 0.5 nM | EC50 [2]: 0.58 nM | Kd [3]: 0.22 nM | IC50 [4]: 3.14 µg/mL | EC50 [5]: 0.58 nM
